Reference: paper doi:10.1101/2020.09.10.281741

What was measured:
[1] = target: Glc-HMW1ct (glycosylated HMW1ct, mixture of 7,8,9,10-Glc glycoforms) (H. influenzae); assay: SPR
[2] = target: His6-HMW1ct (C-terminal region of the HMW1A adhesin of H. influenzae, non-glycosylated) (H. influenzae); assay: SPR

ApNGT-His6 (N-glycosyltransferase from Actinobacillus pleuropneumoniae) (from UniProt A3N2T3 1-620) (enzyme)
Kd [1]: 9.81 µM
Kd [2]: 5.85 µM
